# Results published in article PMC3554864.
# Target: NS3 helicase (NS3, with protease domain) (Hepatitis C virus (genotype ), UniProt Q9WMX2 1027-1657)
# Assay: KMnO4 footprinting
# Sequence of NS3 helicase (NS3, with protease domain) (Q9WMX2 1027-1657): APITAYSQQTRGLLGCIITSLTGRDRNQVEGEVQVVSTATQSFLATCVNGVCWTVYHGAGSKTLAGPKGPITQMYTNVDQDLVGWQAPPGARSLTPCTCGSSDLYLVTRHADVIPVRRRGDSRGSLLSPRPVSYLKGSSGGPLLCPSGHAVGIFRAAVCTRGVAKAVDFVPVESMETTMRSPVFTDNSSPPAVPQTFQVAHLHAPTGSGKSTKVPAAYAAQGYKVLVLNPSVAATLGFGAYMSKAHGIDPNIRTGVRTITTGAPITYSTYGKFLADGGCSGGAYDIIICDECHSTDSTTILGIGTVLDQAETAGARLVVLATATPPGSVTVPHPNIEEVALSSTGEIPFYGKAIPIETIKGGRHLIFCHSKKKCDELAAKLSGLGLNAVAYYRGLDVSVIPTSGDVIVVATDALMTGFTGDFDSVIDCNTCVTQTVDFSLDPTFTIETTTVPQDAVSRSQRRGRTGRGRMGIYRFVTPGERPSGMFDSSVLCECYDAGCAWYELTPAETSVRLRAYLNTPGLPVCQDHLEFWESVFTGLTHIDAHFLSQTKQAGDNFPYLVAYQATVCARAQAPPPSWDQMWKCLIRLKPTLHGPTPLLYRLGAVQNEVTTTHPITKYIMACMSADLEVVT
binder,measurement,value
"30mer blunt duplex (dsDNA, biotin (position not stated for this duplex)) DNA 1: GCTCTCTGTCTGTCTGTGTCTCTGTCTCTG DNA 2: CAGAGACAGAGACACAGACAGACAGAGAGC",binding result,binds
